Experimental data published in paper PMC7016142, “Tripartite phase separation of two signal effectors with vesicles priming B cell responsiveness” (Nature Communications, 2020).
Residue numbers refer to the chain shown, from its start. Names may count otherwise.

Key:
Settings in all cases: both partners purified
CIN85_(1-333) [1] = target: T1, CIN85_(1-333) (human, UniProt Q96B97 1-333, 15N-labeled in the PRE experiment; unlabeled in the HSQC titration); experiment: NMR titration; 15N-HSQC of 60 µM 15N-labeled SLP65_(1-330) titrated with increasing amounts of unlabeled CIN85_(1-333); 293 K; 20 mM HEPES pH 7.2, 100 mM NaCl, 1 mM TCEP, 0.5 mM Pefabloc
T1 construct: CIN85 (SH3KBP1), human, residues 1-333 with the three N-terminal SH3 domains, lacking the C-terminal coiled coil; also called monomeric CIN85; source: E. coli BL21(DE3), purified (Ni-NTA, TEV cleavage, size exclusion); not shown: His7, N-terminal, cleaved
T1 sequence (looked up): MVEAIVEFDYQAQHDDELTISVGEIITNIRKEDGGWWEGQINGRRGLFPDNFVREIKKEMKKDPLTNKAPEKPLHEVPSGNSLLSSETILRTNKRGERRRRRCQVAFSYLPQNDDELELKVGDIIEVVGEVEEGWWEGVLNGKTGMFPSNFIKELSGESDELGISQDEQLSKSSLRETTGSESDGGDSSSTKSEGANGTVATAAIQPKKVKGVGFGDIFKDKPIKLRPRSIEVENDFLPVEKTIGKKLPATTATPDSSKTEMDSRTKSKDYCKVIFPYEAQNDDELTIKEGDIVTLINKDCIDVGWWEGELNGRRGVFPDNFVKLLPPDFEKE

CIN85Δ57 = target: T2, CIN85Δ57 (human, UniProt Q96B97 1-665, deletion of residues 369-425); experiment: NMR titration; 15N-HSQC of 15 µM 15N-labeled SLP65_(1-330) with CIN85Δ57 added, without or with SUVs (phase-separated samples); peak intensity ratio over SLP65 only; 293 K; 20 mM HEPES pH 7.2, 100 mM NaCl, 1 mM TCEP
T2 construct: CIN85 (SH3KBP1), human, amplified with primers from the start ATG to the stop codon, residues 369-425 deleted; The tag and its cleavage follow only from 'Protein expression and purification was performed as described above'; also called trimeric CIN85Δ57; source: E. coli, modified pET28a vector, purified as the other constructs; not shown: His7, N-terminal, cleaved

CIN85_(1-333) [2] = target: T1, CIN85_(1-333); experiment: NMR paramagnetic relaxation enhancement (1H R2-PRE); 15N-labeled CIN85_(1-333) mixed with MTSL-tagged SLP65 constructs at 10:1 molar ratio; TROSY with two-point delay; constructs without MTSL with 1 mM TCEP as diamagnetic reference; 293 K

B1: SLP65_(1-330) (domain or fragment, human, UniProt Q8WV28 1-330, looked up)
chain: MDKLNKITVPASQKLRQLQKMVHDIKNNEGGIMNKIKKLKVKAPPSVPRRDYASESPADEEEQWSDDFDSDYENPDEHSDSEMYVMPAEENADDSYEPPPVEQETRPVHPALPFARGEYIDNRSSQRHSPPFSKTLPSKPSWPSEKARLTSTLPALTALQKPQVPPKPKGLLEDEADYVVPVEDNDENYIHPTESSSPPPEKAPMVNRSTKPNSSTPASPPGTASGRNSGAWETKSPPPAAPSPLPRAGKKPTTPLKTTPVASQQNASSVCEEKPIPAERHRGSSHRQEAVQSPVFPPAQKQIHQKPIPLPRFTEGGNPTVDGPLPSFSS
modifications: 15N-labeled
notes: SLP65 (BLNK), human, residues 1-330 (without the C-terminal SH2 domain); also called BLNK; Src homology (SH) 2 domain-containing leukocyte protein of 65 kDa; source: E. coli BL21(DE3), purified (Ni-NTA, TEV cleavage, size exclusion); not shown: His7, N-terminal, cleaved
- binding result (CIN85_(1-333) [1]): binds
- binding result (CIN85Δ57): binds

B2: SLP65_(40-330), MTSL-tagged at C271 (domain or fragment, human, UniProt Q8WV28 40-330, looked up)
chain: KVKAPPSVPRRDYASESPADEEEQWSDDFDSDYENPDEHSDSEMYVMPAEENADDSYEPPPVEQETRPVHPALPFARGEYIDNRSSQRHSPPFSKTLPSKPSWPSEKARLTSTLPALTALQKPQVPPKPKGLLEDEADYVVPVEDNDENYIHPTESSSPPPEKAPMVNRSTKPNSSTPASPPGTASGRNSGAWETKSPPPAAPSPLPRAGKKPTTPLKTTPVASQQNASSVCEEKPIPAERHRGSSHRQEAVQSPVFPPAQKQIHQKPIPLPRFTEGGNPTVDGPLPSFSS
modifications: nitroxide spin label MTSL on C271
notes: SLP65 (BLNK), human, residues 40-330, naturally contains a single cysteine (C271); also called MTSL-tagged SLP65 constructs; source: E. coli BL21(DE3), purified (Ni-NTA, TEV cleavage, size exclusion); not shown: His7, N-terminal, cleaved
- binding result (CIN85_(1-333) [2]): binds

B3: SLP65_(40-330) (C271A, S141C), MTSL-tagged (domain or fragment, human, UniProt Q8WV28 40-330, looked up)
chain: B2 chain with S102C, C232A
modifications: nitroxide spin label MTSL on the single cysteine (S141C)
notes: SLP65 (BLNK), human, residues 40-330; also called MTSL-tagged SLP65 constructs; source: E. coli BL21(DE3), purified (Ni-NTA, TEV cleavage, size exclusion); not shown: His7, N-terminal, cleaved
- binding result (CIN85_(1-333) [2]): binds

B4: SLP65_(40-330) (C271A, S236C), MTSL-tagged (domain or fragment, human, UniProt Q8WV28 40-330, looked up)
chain: B2 chain with S197C, C232A
modifications: nitroxide spin label MTSL on the single cysteine (S236C)
notes: as for B3
- binding result (CIN85_(1-333) [2]): binds

B5: SLP65_(40-330) (C271A, Q302C), MTSL-tagged (domain or fragment, human, UniProt Q8WV28 40-330, looked up)
chain: B2 chain with C232A, Q263C
modifications: nitroxide spin label MTSL on the single cysteine (Q302C)
notes: as for B3
- binding result (CIN85_(1-333) [2]): binds
